PMC2828913

Target: Collagen matrix (Purecol) (UniProt P02453)
Test: retention in a polymerised collagen gel

Sequence of UniProt P02453 (P02453 162-1217, chain 1 of 2): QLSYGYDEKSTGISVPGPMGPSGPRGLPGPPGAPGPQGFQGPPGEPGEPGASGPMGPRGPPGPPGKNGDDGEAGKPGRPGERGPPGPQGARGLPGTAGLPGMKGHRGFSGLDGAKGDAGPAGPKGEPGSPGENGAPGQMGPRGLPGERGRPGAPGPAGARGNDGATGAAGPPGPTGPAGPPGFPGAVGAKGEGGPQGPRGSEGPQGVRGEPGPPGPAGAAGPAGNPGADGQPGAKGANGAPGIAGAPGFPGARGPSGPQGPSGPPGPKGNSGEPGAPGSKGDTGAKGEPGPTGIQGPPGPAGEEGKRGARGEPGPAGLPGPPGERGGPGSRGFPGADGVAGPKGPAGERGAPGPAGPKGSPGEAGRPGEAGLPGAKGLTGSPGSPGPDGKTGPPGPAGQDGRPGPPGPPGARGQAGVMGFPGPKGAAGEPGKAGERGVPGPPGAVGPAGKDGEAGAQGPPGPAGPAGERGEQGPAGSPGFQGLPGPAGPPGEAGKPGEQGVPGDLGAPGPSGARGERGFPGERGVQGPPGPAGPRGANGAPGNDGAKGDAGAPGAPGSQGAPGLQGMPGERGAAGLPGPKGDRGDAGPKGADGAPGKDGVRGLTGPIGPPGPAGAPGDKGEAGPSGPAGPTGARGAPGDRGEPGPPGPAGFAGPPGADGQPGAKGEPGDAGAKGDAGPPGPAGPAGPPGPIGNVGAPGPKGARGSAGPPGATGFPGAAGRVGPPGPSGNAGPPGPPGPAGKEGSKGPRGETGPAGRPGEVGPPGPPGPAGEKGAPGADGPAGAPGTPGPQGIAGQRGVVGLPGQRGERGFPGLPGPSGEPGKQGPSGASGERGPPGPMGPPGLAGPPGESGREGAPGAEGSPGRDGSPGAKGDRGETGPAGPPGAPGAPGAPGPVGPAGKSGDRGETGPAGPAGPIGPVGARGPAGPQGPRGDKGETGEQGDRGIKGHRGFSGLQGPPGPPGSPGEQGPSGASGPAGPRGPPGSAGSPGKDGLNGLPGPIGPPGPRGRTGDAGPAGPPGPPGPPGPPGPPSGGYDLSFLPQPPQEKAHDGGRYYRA
Sequence of UniProt P02453 (P02465 80-1117, chain 2 of 2, further chain): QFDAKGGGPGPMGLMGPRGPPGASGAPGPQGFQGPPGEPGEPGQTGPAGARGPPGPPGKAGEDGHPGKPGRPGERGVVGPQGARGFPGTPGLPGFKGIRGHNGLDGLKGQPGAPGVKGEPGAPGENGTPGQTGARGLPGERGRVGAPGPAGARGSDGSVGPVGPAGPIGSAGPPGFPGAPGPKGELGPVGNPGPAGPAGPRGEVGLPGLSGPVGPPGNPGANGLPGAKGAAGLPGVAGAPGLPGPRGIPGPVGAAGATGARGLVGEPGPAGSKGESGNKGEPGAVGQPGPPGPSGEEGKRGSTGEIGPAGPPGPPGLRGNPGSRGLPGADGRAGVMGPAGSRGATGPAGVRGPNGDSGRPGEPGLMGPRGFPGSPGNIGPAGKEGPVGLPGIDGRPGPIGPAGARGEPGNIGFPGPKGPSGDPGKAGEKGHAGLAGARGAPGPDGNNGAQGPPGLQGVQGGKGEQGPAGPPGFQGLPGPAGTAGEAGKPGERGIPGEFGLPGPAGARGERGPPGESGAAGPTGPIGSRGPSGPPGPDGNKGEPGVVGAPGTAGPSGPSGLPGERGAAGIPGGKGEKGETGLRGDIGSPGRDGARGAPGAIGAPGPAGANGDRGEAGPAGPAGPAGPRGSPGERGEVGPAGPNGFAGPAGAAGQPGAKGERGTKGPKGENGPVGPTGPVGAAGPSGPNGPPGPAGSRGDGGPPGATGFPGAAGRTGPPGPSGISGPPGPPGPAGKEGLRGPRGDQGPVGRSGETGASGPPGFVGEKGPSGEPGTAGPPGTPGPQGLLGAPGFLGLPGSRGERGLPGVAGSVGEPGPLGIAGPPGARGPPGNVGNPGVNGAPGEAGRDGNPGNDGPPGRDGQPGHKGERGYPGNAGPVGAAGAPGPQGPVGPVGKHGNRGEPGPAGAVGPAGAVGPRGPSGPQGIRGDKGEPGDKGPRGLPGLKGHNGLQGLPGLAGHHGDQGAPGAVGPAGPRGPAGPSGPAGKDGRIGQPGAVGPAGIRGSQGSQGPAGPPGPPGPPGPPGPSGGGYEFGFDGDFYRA

percent retained in the collagen gel after washes: > 80%
Substance: Human VEGF165 (ligand)
